Data as given in the supplement of paper PMC10065799, “High-throughput profiling of sequence recognition by tyrosine kinases and SH2 domains using bacterial peptide display” (eLife, 2023).

Tests used:
MERTK = MERTK (UniProt Q12866); assay: phosphorylation enrichment, bacterial display (enrichment ratio); higher = better substrate or ligand; peptides without Tyr show the background
FGFR3 = FGFR3 (UniProt P22607); assay: as above
AncSZ = assay: as above
Jak2 = Jak2 (UniProt O60674); assay: as above
Hck = Hck (UniProt P08631); assay: as above
EPHB1 = EPHB1 (UniProt P54762); assay: as above
Fes = Fes (UniProt P07332); assay: as above
c-Abl (mouse) = assay: as above
EPHB2 = EPHB2 (UniProt P29323); assay: as above
FGFR1 = FGFR1 (UniProt P11362); assay: as above
c-Src = assay: as above
Fer (mouse) = assay: as above
Fyn = Fyn (UniProt P06241); assay: as above
Grb2 SH2 = Grb2 SH2 (UniProt P62993); assay: SH2 binding enrichment of the phosphorylated peptide, bacterial display (enrichment ratio); higher = better substrate or ligand; peptides without Tyr show the background
c-Src SH2 = assay: as above
SHP2-C SH2 = assay: as above
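For SH2 binding enrichment of the phosphorylated peptide, bacterial display in this document: peptide library displayed on the E. coli surface as eCPX fusions, selected cells deep-sequenced, score is each peptide's frequency after selection divided by its frequency in the input.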
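For phosphorylation enrichment, bacterial display in this document: 11-residue human phosphosite peptides and single-mutation variants displayed on the E. coli surface, counted by deep sequencing, each peptide's frequency after selection divided by its frequency in the unselected input library; frequency after pTyr selection over input frequency; kinase dosed for 20-30% of maximal phosphorylation in three min.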

Sequence of FGFR3 (P22607 whole entry, looked up): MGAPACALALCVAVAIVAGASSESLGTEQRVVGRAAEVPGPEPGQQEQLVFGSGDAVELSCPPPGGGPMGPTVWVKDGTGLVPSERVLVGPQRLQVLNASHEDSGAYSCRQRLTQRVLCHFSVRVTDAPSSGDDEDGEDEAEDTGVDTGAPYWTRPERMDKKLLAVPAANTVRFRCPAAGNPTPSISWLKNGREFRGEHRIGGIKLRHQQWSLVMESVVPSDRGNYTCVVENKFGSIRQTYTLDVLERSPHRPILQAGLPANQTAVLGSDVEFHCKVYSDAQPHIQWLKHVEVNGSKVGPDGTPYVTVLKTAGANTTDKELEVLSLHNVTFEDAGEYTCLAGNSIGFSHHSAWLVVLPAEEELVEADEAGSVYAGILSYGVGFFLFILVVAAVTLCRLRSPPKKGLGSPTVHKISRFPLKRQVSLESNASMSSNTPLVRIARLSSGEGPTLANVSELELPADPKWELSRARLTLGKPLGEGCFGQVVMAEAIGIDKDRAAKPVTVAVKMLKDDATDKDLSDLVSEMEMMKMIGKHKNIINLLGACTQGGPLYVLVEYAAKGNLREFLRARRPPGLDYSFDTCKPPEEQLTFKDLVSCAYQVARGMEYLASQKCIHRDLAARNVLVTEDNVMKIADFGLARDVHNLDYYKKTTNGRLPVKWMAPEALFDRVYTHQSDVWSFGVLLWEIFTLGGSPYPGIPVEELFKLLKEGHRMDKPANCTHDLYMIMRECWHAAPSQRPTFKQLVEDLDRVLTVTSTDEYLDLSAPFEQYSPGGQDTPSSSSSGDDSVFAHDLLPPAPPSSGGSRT
Sequence of EPHB1 (P54762 whole entry, looked up): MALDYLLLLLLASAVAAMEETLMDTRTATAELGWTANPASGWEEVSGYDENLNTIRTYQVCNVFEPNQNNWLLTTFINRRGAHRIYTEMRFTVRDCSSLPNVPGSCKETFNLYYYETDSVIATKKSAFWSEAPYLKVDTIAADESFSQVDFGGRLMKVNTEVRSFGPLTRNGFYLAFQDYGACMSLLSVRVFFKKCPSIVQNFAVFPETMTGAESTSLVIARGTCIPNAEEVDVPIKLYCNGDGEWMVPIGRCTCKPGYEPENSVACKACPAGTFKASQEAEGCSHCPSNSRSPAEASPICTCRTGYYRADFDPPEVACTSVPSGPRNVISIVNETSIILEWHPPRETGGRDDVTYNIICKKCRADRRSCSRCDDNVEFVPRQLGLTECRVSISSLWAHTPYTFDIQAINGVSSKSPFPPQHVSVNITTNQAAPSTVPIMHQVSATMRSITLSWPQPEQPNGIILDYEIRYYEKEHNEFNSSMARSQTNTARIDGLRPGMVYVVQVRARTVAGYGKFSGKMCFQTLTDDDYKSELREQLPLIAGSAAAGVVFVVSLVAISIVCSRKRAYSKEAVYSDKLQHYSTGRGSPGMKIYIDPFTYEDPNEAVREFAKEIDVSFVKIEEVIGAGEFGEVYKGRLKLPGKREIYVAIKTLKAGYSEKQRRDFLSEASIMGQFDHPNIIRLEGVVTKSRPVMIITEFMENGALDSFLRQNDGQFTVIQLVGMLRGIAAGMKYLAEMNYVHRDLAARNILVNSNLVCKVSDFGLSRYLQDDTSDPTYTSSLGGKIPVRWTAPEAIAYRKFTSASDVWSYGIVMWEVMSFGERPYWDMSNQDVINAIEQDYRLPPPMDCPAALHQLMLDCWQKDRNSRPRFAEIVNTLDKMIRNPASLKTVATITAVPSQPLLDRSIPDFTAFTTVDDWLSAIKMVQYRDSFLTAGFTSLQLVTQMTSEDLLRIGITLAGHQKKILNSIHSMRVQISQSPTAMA
Sequence of MERTK (Q12866 whole entry, looked up): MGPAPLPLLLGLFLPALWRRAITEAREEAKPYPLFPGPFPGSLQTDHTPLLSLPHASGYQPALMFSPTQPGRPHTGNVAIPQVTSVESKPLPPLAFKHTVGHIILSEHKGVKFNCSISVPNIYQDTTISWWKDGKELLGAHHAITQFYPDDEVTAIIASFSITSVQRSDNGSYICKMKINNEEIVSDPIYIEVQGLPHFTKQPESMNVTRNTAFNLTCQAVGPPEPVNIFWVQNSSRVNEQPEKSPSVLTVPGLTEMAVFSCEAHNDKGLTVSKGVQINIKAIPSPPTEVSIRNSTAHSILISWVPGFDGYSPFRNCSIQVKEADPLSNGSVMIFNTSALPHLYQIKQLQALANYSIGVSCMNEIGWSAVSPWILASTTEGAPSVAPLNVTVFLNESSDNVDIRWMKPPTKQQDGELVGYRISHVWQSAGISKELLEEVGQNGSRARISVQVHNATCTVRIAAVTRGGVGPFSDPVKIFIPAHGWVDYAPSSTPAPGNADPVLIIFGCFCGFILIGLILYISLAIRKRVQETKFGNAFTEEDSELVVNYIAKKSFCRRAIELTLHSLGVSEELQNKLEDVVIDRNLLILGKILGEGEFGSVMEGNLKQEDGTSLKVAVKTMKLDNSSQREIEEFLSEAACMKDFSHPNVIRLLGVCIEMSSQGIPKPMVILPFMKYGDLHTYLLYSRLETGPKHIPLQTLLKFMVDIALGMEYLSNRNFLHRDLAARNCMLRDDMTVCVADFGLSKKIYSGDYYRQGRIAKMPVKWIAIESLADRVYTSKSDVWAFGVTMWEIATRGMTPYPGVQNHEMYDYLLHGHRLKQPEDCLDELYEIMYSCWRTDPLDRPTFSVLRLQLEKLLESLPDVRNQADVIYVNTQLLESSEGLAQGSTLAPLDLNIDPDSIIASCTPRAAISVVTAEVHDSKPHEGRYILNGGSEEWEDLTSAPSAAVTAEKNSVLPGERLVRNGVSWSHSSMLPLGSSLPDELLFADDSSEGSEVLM
Sequence of Fyn (P06241 whole entry, looked up): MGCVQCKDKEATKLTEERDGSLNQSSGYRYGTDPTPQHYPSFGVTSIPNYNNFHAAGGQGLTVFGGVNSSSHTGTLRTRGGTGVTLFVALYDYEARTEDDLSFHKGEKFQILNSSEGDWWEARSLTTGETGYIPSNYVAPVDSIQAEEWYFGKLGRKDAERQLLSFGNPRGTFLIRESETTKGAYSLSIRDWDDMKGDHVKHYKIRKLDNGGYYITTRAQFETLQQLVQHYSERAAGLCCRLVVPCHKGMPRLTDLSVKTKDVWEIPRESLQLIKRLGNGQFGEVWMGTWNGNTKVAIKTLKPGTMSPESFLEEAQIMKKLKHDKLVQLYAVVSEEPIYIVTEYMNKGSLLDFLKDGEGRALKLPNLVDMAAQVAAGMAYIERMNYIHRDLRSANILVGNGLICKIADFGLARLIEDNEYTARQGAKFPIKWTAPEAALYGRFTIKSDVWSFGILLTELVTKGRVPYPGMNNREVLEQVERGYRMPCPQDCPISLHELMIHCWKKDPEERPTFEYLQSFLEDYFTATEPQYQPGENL
Sequence of Hck (P08631 whole entry, looked up): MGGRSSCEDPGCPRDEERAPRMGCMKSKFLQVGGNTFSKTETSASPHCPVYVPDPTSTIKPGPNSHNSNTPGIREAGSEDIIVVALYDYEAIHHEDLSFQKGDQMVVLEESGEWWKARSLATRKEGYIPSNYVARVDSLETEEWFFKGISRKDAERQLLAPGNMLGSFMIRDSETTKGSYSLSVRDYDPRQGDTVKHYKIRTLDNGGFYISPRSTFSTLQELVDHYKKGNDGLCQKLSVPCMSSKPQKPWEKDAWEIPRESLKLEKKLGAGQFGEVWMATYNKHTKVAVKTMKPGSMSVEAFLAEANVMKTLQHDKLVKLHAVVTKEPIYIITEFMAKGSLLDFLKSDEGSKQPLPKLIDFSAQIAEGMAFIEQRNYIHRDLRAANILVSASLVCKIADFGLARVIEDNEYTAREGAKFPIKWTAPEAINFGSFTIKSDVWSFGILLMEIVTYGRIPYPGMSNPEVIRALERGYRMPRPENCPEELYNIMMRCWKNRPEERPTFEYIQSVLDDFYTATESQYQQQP
Sequence of Fes (P07332 whole entry, looked up): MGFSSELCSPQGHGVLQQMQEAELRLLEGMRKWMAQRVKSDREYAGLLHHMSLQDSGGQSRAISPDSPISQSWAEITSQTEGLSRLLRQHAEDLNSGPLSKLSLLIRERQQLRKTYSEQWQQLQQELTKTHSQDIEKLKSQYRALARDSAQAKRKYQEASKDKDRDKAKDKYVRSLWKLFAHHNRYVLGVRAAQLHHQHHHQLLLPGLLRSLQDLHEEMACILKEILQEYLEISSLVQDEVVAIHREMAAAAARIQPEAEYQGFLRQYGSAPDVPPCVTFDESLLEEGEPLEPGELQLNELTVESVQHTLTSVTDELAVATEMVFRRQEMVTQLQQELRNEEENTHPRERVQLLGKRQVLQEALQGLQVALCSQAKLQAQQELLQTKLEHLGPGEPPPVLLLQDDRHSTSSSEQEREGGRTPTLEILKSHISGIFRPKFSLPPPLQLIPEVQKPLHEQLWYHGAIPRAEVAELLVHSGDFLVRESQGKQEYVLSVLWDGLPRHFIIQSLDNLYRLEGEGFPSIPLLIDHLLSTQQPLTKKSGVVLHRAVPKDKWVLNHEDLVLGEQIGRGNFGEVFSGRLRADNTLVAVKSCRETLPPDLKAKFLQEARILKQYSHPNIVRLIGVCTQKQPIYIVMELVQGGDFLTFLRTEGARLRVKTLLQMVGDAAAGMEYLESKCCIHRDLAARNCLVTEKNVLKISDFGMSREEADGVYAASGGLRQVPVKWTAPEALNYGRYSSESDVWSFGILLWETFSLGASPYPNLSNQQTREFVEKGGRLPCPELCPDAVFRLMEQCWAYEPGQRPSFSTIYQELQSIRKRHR
Sequence of Grb2 SH2 (P62993 whole entry, looked up): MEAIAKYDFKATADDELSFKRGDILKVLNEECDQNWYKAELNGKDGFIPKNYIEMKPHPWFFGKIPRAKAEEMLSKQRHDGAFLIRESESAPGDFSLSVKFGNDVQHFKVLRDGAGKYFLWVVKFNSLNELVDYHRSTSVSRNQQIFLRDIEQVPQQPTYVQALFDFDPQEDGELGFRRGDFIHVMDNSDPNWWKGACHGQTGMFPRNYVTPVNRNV

Sequence | phosphorylation enrichment (MERTK) | phosphorylation enrichment (FGFR3) | phosphorylation enrichment (AncSZ) | phosphorylation enrichment (Jak2) | phosphorylation enrichment (Hck) | phosphorylation enrichment (EPHB1) | phosphorylation enrichment (Fes) | phosphorylation enrichment (c-Abl (mouse)) | phosphorylation enrichment (EPHB2) | phosphorylation enrichment (FGFR1) | phosphorylation enrichment (c-Src) | phosphorylation enrichment (Fer (mouse)) | phosphorylation enrichment (Fyn) | SH2 binding enrichment (Grb2 SH2) | SH2 binding enrichment (c-Src SH2) | SH2 binding enrichment (SHP2-C SH2)
RASSSYRETPS [SORBS1_Y79] | 0.644 | 0.68 | 0.681 | 1.49 | 0.502 | 0.361 | 0.659 | 0.757 | 0.337 | 0.611 | 0.775 | 0.513 | 0.655 | 0.876 | 0.491 | 0.844
TGSFTCEAVEL [MTMR14_Y462_Y462C] | 0.419 | 0.811 | 1.19 | 0.892 | 0.573 | 0.661 | 1.24 | 0.77 | 0.659 | 0.529 | 0.483 | 0.619 | 0.65 | 0.888 | 0.576 | 0.676
MVIPNYSSRTE [UROC1_Y185] | 0.425 | 0.416 | 0.535 | 0.486 | 0.329 | 0.477 | 0.642 | 0.438 | 0.462 | 0.406 | 0.446 | 0.435 | 0.406 | 0.711 | 0.55 | 0.488
LMIEEYLTKEP [BAG3_Y457_L462P] | 1.12 | 1.88 | 2.05 | 2.78 | 1.5 | 1.15 | 2.51 | 2.45 | 0.975 | 1.2 | 1.49 | 0.745 | 0.6 | 0.743 | 0.552 | 0.953
LEVETYRRLLD [KRT12_Y429_I426V] | 0.344 | 0.625 | 0.676 | 0.749 | 0.511 | 0.491 | 0.797 | 0.551 | 0.407 | 0.396 | 0.349 | 0.439 | 0.421 | 0.843 | 0.467 | 0.64
IRCQGYSHRIL [MYO3B_Y993_R990C] | 0.471 | 0.506 | 0.723 | 0.649 | 0.475 | 0.46 | 0.664 | 0.493 | 0.558 | 0.423 | 0.523 | 0.47 | 0.493 | 0.925 | 0.824 | 0.915
EMFNPCYGLFE [NEDD4L_Y679_Y679C] | 0.765 | 0.713 | 1.04 | 1.2 | 1.43 | 0.489 | 1.49 | 1.03 | 0.689 | 0.543 | 5.2 | 1.14 | 4.58 | 0.918 | 0.643 | 0.803
FPAVGYHKPHI [IDS_Y225_L221P] | 0.374 | 0.565 | 0.638 | 0.625 | 0.394 | 0.393 | 0.601 | 0.602 | 0.467 | 0.412 | 0.41 | 0.436 | 0.472 | 0.823 | 0.91 | 0.826
LNPLIYSLRNK [OR5R1_Y290] | 1.5 | 1.44 | 1.13 | 1.13 | 8.23 | 2.03 | 2.46 | 2.28 | 1.29 | 1.94 | 6.55 | 1.21 | 6.76 | 0.86 | 0.727 | 1.66
KGEDFYCVTRH [FHL1_Y149_C153R] | 0.82 | 0.715 | 1.22 | 1 | 0.808 | 0.592 | 1.2 | 0.835 | 0.558 | 0.498 | 0.794 | 0.662 | 0.633 | 0.766 | 0.357 | 0.694
RREGVYRNNID [PTEN_Y46_L42R] | 0.752 | 0.516 | 0.55 | 0.778 | 0.461 | 0.324 | 0.925 | 0.783 | 0.517 | 0.392 | 0.8 | 0.469 | 0.664 | 0.621 | 0.436 | 0.451
TKDTFYKQPMV [GBA_Y451_F456V] | 0.407 | 0.512 | 0.726 | 0.729 | 0.348 | 0.421 | 0.914 | 1.03 | 0.585 | 0.355 | 0.395 | 0.38 | 0.358 | 0.781 | 0.403 | 0.689
SSWPGYVRPLP [HSPB1_Y54] | 0.407 | 0.458 | 0.774 | 2.22 | 0.485 | 0.48 | 0.648 | 0.54 | 0.423 | 0.491 | 0.491 | 0.459 | 0.52 | 0.97 | 0.741 | 0.654
QEALEYFMKQI [PIK3CA_Y1038_M1043I] | 0.449 | 0.744 | 1.68 | 1.53 | 0.631 | 0.845 | 1.43 | 1.28 | 0.547 | 0.616 | 0.714 | 0.599 | 0.545 | 0.704 | 0.455 | 0.926
YQEPVYSVAFS [TBL1X_Y509_H504Y] | 12.7 | 5.72 | 5.95 | 0.989 | 11.1 | 18.9 | 4.74 | 29.6 | 26.2 | 6.72 | 8.72 | 17.5 | 12.4 | 0.781 | 2.93 | 0.527
AAVLNYKAGRD [GRIN2A_Y737] | 0.41 | 0.379 | 0.461 | 0.469 | 0.322 | 0.352 | 0.482 | 0.389 | 0.33 | 0.382 | 0.432 | 0.342 | 0.397 | 0.835 | 0.447 | 0.44
MGHVNYGAYIN [GLB1_Y485_R482H] | 0.358 | 0.444 | 0.602 | 0.672 | 0.471 | 0.535 | 0.661 | 0.571 | 0.796 | 0.384 | 0.589 | 0.395 | 0.521 | 5.27 | 1.39 | 0.902

Sequence | phosphorylation enrichment (MERTK) | phosphorylation enrichment (FGFR3) | phosphorylation enrichment (AncSZ) | phosphorylation enrichment (Jak2) | phosphorylation enrichment (Hck) | phosphorylation enrichment (EPHB1) | phosphorylation enrichment (Fes) | phosphorylation enrichment (c-Abl (mouse)) | phosphorylation enrichment (EPHB2) | phosphorylation enrichment (FGFR1) | phosphorylation enrichment (c-Src) | phosphorylation enrichment (Fer (mouse)) | phosphorylation enrichment (Fyn) | SH2 binding enrichment (Grb2 SH2) | SH2 binding enrichment (c-Src SH2) | SH2 binding enrichment (SHP2-C SH2)
ALTDNYMFLVI [HAGH_Y61_YF] | 1.97 | 5.16 | 1.37 | 1.49 | 0.869 | 8.31 | 1.62 | 1.22 | 6.12 | 7.04 | 0.733 | 2.88 | 0.615 | 0.68 | 0.366 | 0.441
MAQDIYRASFF [ALK_Y1278_R1275Q_YF] | 0.66 | 0.482 | 0.683 | 0.711 | 2.06 | 0.353 | 0.69 | 12.2 | 0.499 | 0.462 | 2.28 | 0.446 | 1.52 | 1.04 | 0.456 | 0.738
KDYETYQSFQN [CTNND2_Y1157_P1159S] | 0.427 | 0.691 | 1.33 | 1.03 | 5.74 | 7.69 | 1.03 | 0.875 | 8.93 | 0.551 | 4.92 | 0.651 | 6.69 | 0.981 | 0.533 | 0.712
LLIMEYAKFGS [RET_Y806_V804M_YF] | 0.701 | 0.697 | 1.34 | 2.11 | 1.59 | 1.07 | 1.77 | 1.51 | 0.968 | 0.772 | 1.96 | 0.909 | 1.09 | 1.35 | 0.929 | 0.655
QLFGAYLRIHA [BSCL2_Y213_YF] | 0.599 | 2.28 | 1.49 | 1.37 | 1.02 | 1.17 | 2.12 | 0.744 | 0.915 | 0.928 | 0.559 | 0.837 | 0.784 | 1.28 | 0.972 | 0.952
EYHRLYEEYTR [PIK3R1_Y467_D464H] | 2.48 | 1.61 | 1.45 | 0.978 | 5.42 | 3.87 | 0.898 | 0.653 | 5.18 | 2.52 | 4.19 | 2.31 | 5.5 | 0.96 | 1.86 | 0.718
AEQDCYHGAIP [FER_Y461_W460C] | 0.453 | 0.599 | 0.864 | 0.742 | 0.499 | 0.648 | 1.01 | 0.706 | 0.655 | 0.523 | 0.599 | 0.456 | 0.472 | 0.96 | 0.65 | 0.827
KTGDYYDLYGG [PTPN11_Y63_N58K] | 3.04 | 13.8 | 1.86 | 2.26 | 5.07 | 9.65 | 1.09 | 0.813 | 7.72 | 16.8 | 3.86 | 0.829 | 4.48 | 0.858 | 0.916 | 0.665
FSNVLYRPRGA [TMIGD2_Y197_YF] | 0.418 | 0.43 | 0.695 | 0.478 | 0.41 | 0.415 | 0.845 | 0.611 | 0.526 | 0.388 | 0.477 | 0.479 | 0.437 | 0.647 | 0.416 | 0.638
GGQDVYGDFGG [Probound] | 0.562 | 0.573 | 0.748 | 0.905 | 5.41 | 0.718 | 0.837 | 0.939 | 0.883 | 0.527 | 5.08 | 0.498 | 8.36 | 0.803 | 0.509 | 0.79
CSRCFYQLTKL [AR_Y858_R856C] | 0.55 | 0.587 | 0.864 | 0.728 | 0.362 | 0.45 | 0.904 | 0.564 | 0.459 | 0.601 | 1.14 | 1.85 | 0.429 | 1.24 | 1.18 | 1.52
EEQKRYYNAMK [SCN5A_Y1494_K1493R] | 0.351 | 0.48 | 0.623 | 0.479 | 0.46 | 0.512 | 0.648 | 0.352 | 0.49 | 0.511 | 0.327 | 0.436 | 0.471 | 1.32 | 0.813 | 0.522
FFIMMYTGSSV [DNAJC13_Y1131_N1135S] | 0.325 | 0.533 | 0.97 | 0.824 | 0.438 | 0.62 | 1.07 | 0.743 | 0.468 | 0.366 | 0.342 | 0.456 | 0.316 | 0.703 | 0.455 | 0.851
VDSLRYIYPKL [EIF2B3_Y92_A87V] | 0.489 | 0.655 | 0.757 | 0.733 | 0.524 | 0.561 | 0.844 | 0.553 | 0.506 | 0.453 | 0.424 | 0.532 | 0.48 | 0.88 | 10.7 | 1.43
AGREEYSAMRD [KRAS_Y64_Q61R] | 0.425 | 0.575 | 0.787 | 0.686 | 0.508 | 0.506 | 0.834 | 0.655 | 0.546 | 0.472 | 0.421 | 0.453 | 0.479 | 0.98 | 1.02 | 0.598
EEGNPYFSSTR [MCCC2_Y520_A524T_YF] | 0.349 | 0.621 | 0.865 | 0.823 | 0.595 | 0.509 | 0.814 | 0.585 | 0.527 | 0.484 | 1.14 | 0.413 | 0.505 | 0.884 | 0.549 | 0.588
